Laboratory results reported in patent US20040058416A1.

Biological target: trkB-IgG immunoadhesin (human trkB extracellular domain fused to human IgG-1 Fc) (human)
Experiment: competitive displacement of iodinated BDNF from trkB-IgG by unlabelled NT4/5

Chain of trkB-IgG immunoadhesin (human trkB extracellular domain fused to human IgG-1 Fc) (human) (Q16620 32-423): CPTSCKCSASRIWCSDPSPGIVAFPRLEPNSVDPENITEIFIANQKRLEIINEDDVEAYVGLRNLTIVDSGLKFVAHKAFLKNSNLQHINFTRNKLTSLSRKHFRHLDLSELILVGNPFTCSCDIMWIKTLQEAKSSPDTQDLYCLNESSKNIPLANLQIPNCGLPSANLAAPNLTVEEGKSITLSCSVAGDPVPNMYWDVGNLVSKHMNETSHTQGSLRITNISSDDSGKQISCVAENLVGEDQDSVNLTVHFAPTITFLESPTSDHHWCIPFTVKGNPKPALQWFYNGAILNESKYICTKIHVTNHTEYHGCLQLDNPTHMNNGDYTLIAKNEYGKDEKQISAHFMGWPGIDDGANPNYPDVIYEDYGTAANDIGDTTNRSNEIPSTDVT

Question: How did the IC50 turn out when “neurotrophin-4/5 (NT-4/5) (from UniProt P34130 81-210) (ligand)” was run?
Answer: 0.2 nM
